Source: patent US6518063 (University of Texas, dated 1998)

Key:
[1] = target: T1, ΔN19.1.1 deletion mutant of Osf2 (His-tagged) (mouse, UniProt Q08775 99-607); experiment: EMSA with labeled OSE2 oligonucleotide, with or without Cbfβ
T1 construct: counted with Met69 of the cDNA as residue 1

[2] = target: T2, histidine-tagged recombinant Osf2/Cbfa1 polypeptide (His-Osf2/Cbfa1) (mouse, UniProt Q08775 80-607); experiment: as above
T2 construct: Bacterially expressed, enriched on Ni resin; also called His-tagged Osf2/Cbfa1 polypeptide
T2 sequence (Q08775 other isoform, or with tags, fused parts or gaps): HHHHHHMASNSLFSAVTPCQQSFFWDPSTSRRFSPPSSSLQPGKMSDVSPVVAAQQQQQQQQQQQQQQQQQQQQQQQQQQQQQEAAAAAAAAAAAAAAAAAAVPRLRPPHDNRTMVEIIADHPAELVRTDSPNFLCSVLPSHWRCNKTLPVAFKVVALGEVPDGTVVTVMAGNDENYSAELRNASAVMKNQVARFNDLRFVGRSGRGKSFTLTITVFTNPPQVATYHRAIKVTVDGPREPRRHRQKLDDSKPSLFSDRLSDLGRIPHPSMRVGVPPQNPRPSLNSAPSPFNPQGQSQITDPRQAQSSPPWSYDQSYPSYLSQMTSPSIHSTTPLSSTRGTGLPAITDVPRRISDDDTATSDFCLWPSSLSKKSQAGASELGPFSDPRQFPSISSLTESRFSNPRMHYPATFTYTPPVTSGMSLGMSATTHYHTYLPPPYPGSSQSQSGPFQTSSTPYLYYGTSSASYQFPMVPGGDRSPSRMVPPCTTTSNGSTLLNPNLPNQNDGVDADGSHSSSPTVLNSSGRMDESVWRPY

T1 sequence (Q08775 other isoform, or with tags, fused parts or gaps mutant): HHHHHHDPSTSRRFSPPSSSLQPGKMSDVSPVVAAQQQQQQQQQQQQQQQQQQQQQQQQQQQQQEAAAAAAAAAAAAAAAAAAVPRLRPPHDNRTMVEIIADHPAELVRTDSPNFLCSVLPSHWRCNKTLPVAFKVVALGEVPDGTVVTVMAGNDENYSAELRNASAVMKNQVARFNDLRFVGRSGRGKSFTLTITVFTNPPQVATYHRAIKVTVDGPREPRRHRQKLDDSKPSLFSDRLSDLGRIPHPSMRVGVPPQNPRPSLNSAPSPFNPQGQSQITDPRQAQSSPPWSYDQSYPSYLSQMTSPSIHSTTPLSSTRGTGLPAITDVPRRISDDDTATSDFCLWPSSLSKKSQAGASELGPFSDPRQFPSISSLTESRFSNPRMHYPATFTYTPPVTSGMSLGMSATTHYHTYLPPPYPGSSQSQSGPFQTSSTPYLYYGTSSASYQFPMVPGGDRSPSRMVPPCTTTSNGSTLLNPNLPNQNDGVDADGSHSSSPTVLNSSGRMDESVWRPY

B1: histidine-tagged Cbfβ (other)
chain: HHHHHHMPRVVPDQRSKFENEEFFRKLSRECEIKYTGFRDRPHEERQTRFQNACRDGRSEIAFVATGTNLSLQFFPASWQGEQRQTPSREYVDLEREAGKVYLKAPMILNGVCVIWKGWIDLHRLDGMGCLEFDEERAQQEDALAQQAFEEARRRTREFEDRDRSHREEMEARRQQDPSPGSNLGGGDDLKLR
notes: Recombinant Cbfβ added in EMSA; also called Cbf]3
B1: no binding [1]; no binding [2].
